Where two headings read alike, the source gives them in different places.

The values that follow come from paper PMC7351598.

What all share (test): MST
Experiment [1] deals with 6xHis-MBP-SpyCas9 (Streptococcus pyogenes) (UniProt Q99ZW2).
The target is the same in experiment [2]. This is another data set of the same source.
For experiment [3], the target named is 6xHis-MBP-SpyCas9(D10A) (Streptococcus pyogenes) (UniProt Q99ZW2).
Experiment [4] addresses 6xHis-MBP-SpyCas9(H840A) (Streptococcus pyogenes) (UniProt Q99ZW2).
Experiment [5] concerns the target 6xHis-MBP-deadSpyCas9 (Streptococcus pyogenes) (UniProt Q99ZW2).
Experiment [6] has as its target Cas9-gRNA prebound to AcrIIA2b.3 (Streptococcus pyogenes | not stated) (UniProt Q99ZW2).

As to AcrIIA1 (natural protein), the Kd came to 31 nM in experiment [1]; 23 nM in experiment [2]; 38 nM in experiment [3]; 2000 nM in experiment [4]; 905 nM in experiment [5]; 24 nM in experiment [6].
Regarding AcrIIA2b.3 (natural protein), the Kd in experiment [2] turned out to be 20 nM. In other words, the double-digit nanomolar range.

Usually Kd stands for the free concentration of one partner at which half of the binding sites on the other are occupied at equilibrium, for simple one-to-one binding. Low values mean higher affinity, high ones lower affinity.
